From patent US20100137155A1, “BIOSENSOR, METHOD FOR FABRICATING THE SAME, DETECTING METHOD UTILIZING THE SAME” (SHARP KABUCHIKI KAISHA, priority 2006, published 2010)

What was measured:
Cry-J1 = target: T1, Cry-J1 (Cryptomeria japonica, UniProt P18632); experiment: ELISA detection efficiency for Cry-J1 of peptides bonded to PEG-DG linkers on aminated plate (Examples 2-5); assay type: binding, Japanese cedar (Cryptomeria japonica); details: for reactivity with respect to Cry-J1 (SH1 compared with AL1) / inclination of the 450 nm light absorbance versus antigen Cryj1 concentration: PEG-DG chain length 11.0 Å, n=2; for reactivity with respect to Cry-J1 (SH1 compared with AL1): FIG. 10; for inclination of the 450 nm light absorbance versus antigen Cryj1 concentration: antigen Cryj1 0 to 2.0 μg/mL
T1 sequence (P18632 22-374): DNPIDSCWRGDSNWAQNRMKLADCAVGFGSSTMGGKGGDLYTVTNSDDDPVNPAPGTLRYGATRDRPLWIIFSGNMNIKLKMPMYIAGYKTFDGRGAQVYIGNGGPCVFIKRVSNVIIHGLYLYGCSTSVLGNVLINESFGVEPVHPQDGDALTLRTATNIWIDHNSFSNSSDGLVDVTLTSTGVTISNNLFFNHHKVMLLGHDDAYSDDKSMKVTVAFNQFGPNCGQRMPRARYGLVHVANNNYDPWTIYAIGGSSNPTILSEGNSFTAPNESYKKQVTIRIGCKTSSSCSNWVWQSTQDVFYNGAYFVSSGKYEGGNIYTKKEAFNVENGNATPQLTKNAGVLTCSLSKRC
Procedure: In order to examine influences that the length of the linker has on the detection sensitivity of the biosensor, the following experiment was carried out. A 5 μg/mL aqueous solution of acetyl-NH-TEYTIHWWK-COOH(SH1) serving as an artificially synthesized CRY-J1 recognition peptide was mixed with a sodium hydrogen carbonate buffer solution (pH=9) containing 45 μM poly(or mono)ethylene glycol diglycidyl ether (PEG-DG) in order to cause a solid phase reaction.
As PEG-DG (poly(or mono)ethylene glycol diglycidyl ether) serving as a linker molecule, six kinds thereof with different chain lengths were selected. Specifically, sample 1: 8.3 Å chain length, degree of polymerization n=1; sample 2: 11.0 Å chain length, degree of polymerization n=2; sample 3: 16.6 Å chain length, degree of polymerization n=4; sample 4: […] chain length, degree of polymerization n=9; sample 5: 41.4 Å chain length, degree of polymerization n=13; and sample 6: 66.2 Å chain length, degree of polymerization n=22. The PEG-DG was selected from the Denacole EX series of Nagase ChemteX Corporation.
Using an aminated 96-hole ELISA method plate (Sumilon MS-3608F, available from SUMITOMO BAKELITE Co., Ltd.) as a solid phase, the solid phase reaction was completed in 24 hours at room temperature.
Blocking One, available from Nacalai Tesque, Inc., was used for the blocking, and the reaction was carried out at room temperature and completed in 24 hours.
To each of the linker molecules with different lengths, 50 μL of each of the acetyl-NH-TEYTIHWWK-COOH diluted solutions of 0 μg/mL, 0.2 μg/mL, 0.5 μg/mL, 1.0 μg/mL, 2.0 μg/mL, and 5.0 μg/mL was dropped to cause bonding between the linker and the peptide.
Anti-cedar pollen antigen Cry-J1-HRP (Horse Radish Peroxidase) (SEIKAGAKU CORPORATION) serving as a secondary antibody was prepared by diluting it 1000-fold with a phosphoric acid buffer solution containing 0.1% Tween 20, and 100 μL of this preparation solution was added to cause a reaction for one hour at room temperature. […]
The solid phase reaction was caused by mixing a 5 μg/mL aqueous solution of acetyl-NH-KTEYTIHWWK-COOH with a sodium hydrogen carbonate buffer solution (pH=9) containing 45 μM poly(or mono)ethylene glycol diglycidyl ether (PEG-DG).
The solid phase reaction was caused by mixing a 5 μg/mL aqueous solution of acetyl-NH-TEETIWWWK-COOH with a sodium hydrogen carbonate buffer solution (pH=9) containing 45 μM polyethylene glycol diglycidyl ether (PEG-DG).
As polyethylene glycol diglycidyl ether (PEG-DG), one such that the chain length was 11.0 Å and the degree of polymerization was n=2 was used.
The reaction of the artificially synthesized peptide AM was carried out in such a manner that 50 μL of each of the antigen Cryj1 diluted solutions of 0 μg/mL, 0.2 μg/mL, 0.5 μg/mL, 1.0 μg/mL, 2.0 μg/mL, and 5.0 μg/mL was dropped to cause bonding between the linker and the peptide.
For acetyl-NH-TEYTIHWWK-COOH(SH1) serving as the artificially synthesized Cry-J1 recognition peptide, a solid phase was carried out in accordance with example 2. The poly(or mono)ethylene glycol diglycidyl ether (PEG-DG) that was used was such that the chain length was 11.0 Å and the degree of polymerization was n=2.

[1] = target: T2, pollen allergen protein (Cry-J1) (Cryptomeria japonica, UniProt P18632); experiment: ELISA of Cry-J1 capture by peptide immobilized on amino group-bonded plate via polyethylene diglycidyl ether (Example 1); assay type: binding, Japanese cedar (Cryptomeria japonica); details: Cry-J1 0, 1, 5, 10 ng/mL; peptide immobilized through polyethylene diglycidyl ether; FIG. 5
T2 construct: purchased SEIKAGAKU CORPORATION
T2 sequence (P18632 22-374): T1 sequence (P18632 22-374)
Procedure: The reactivity between anti-Cry-J1 antibody H chain hypervariable area peptide (acetylated TEYTIHWWK) and pollen allergen protein (Cry-J1) was studied by the ELISA method. The experiment method can be summarized as follows.
To a well of an amino group-bonded plate (MS-3608F, available from SUMITOMO BAKELITE Co., Ltd.), a 200 μL solution of 0.0095 mg/mL acetylated TEYTIHWWK and 0.018 mg/mL polyethylene diglycidyl ether was added, and the resulting product was settled for a night at 4° C.
The peptide solution was taken out, followed by addition thereto 200 μL Blocking One (available from Nacalai Tesque, Inc.), and the resulting product was subjected to blocking processing.
After the blocking processing, the blocking solution was taken out and the well was washed with PBS containing 0.05% Tween 20. As the washing, the operation of adding and taking out 200 μL PBS containing 0.05% Tween 20 (20 mM of sodium phosphate, pH 7.4, 0.15 M of NaCl) to and of the well was carried out three times. […]
To the well, 100 μL color developing solution (available from Nacalai Tesque, Inc.) was added to cause a reaction for 10 minutes at room temperature. After the 10 minutes of reaction, 100 μL stop solution was added, and a 450 nm light absorbance was measured with a plate reader (available from Bio-Rad Laboratories, Inc.).

| Substance | reactivity with respect to Cry-J1 (SH1 compared with AL1) (Cry-J1) | inclination of the 450 nm light absorbance versus antigen Cryj1 concentration (Cry-J1) | further results |
| --- | --- | --- | --- |
| acetyl-NH-KTEYTIHWWK-COOH (Ac-KTEYTIHWWK-OH) [Cry-J1 recognition peptide with a lysine residue at both terminals, N terminal α-amino group acetylated] |  |  | detection efficiency with respect to Cry-J1 (inclination of 450 nm light absorbance) (Cry-J1; one linker at N terminal lysine and another at C terminal lysine, linker lengths 8.3 to 66.2 Å (n=1 to 22), FIG. 8): substantially the same irrespective of the linker length |
| acetyl-NH-TEYTIHWWK-COOH (Ac-TEYTIHWWK-OH) [artificially synthesized CRY-J1 recognition peptide; only α-amino group of N terminal T acetylated, lysine added to C terminal] | substantially the same reactivity | linear | reactivity between peptide and pollen allergen protein (Cry-J1), 450 nm light absorbance [1]: captured by the peptide depending on the concentration of the protein; detection efficiency with respect to Cry-J1 (inclination of 450 nm light absorbance) (Cry-J1; linker bonded at C terminal lysine, linker lengths of 15 Å or less (n=1 or 2) compared with 16.6 Å or more (n=4 or greater), FIG. 6): higher |
| acetyl-NH-KTEYTIHWW-COOH (Ac-KTEYTIHWW-OH) [anti-Cry-J1 antibody H chain hypervariable area peptide with N terminal lysine, α-amino group acetylated] |  |  | detection efficiency with respect to Cry-J1 (inclination of 450 nm light absorbance) (Cry-J1; linker bonded at N terminal lysine side chain, linker lengths of 20 to 60 Å (degree of polymerization n=4 to 9), FIG. 7): high |
| acetyl-NH-TEETIWWWK-COOH (Ac-TEETIWWWK-OH) [peptide in which tyrosine was changed to glutamic acid and histidine to tryptophan] | substantially the same reactivity | linear |  |
